According to paper PMC7710722, “A nanobody suite for yeast scaffold nucleoporins provides details of the nuclear pore complex structure” (Nature Communications, 2020):
One block for each binder: values may come before it.

Experiments:
Settings in all cases: both partners purified
[1] = molecular target: T1, Nup85 (analyte of the BLI of Table 1) (Saccharomyces cerevisiae S288c, UniProt P46673); experiment: BLI; biotinylated, C-terminally Avi-tagged nanobody immobilised on streptavidin tips, nup as analyte in twofold dilution series; 10 mM Tris/HCl pH 7.5, 150 mM NaCl, 1 mM DTT, 0.1 mM EDTA, 0.05% Tween-20, 0.1% BSA; global 1:1 kinetic fit
T1 construct: Nup85, S. cerevisiae; the analyte may have been a complex with Seh1; source: E. coli, recombinant

[2] = molecular target: T2, Nup120 (analyte of the BLI of Table 1) (Saccharomyces cerevisiae S288c, UniProt P35729); experiment: as above
T2 construct: Nup120, S. cerevisiae; source: E. coli, recombinant
T2 sequence (P35729 whole entry): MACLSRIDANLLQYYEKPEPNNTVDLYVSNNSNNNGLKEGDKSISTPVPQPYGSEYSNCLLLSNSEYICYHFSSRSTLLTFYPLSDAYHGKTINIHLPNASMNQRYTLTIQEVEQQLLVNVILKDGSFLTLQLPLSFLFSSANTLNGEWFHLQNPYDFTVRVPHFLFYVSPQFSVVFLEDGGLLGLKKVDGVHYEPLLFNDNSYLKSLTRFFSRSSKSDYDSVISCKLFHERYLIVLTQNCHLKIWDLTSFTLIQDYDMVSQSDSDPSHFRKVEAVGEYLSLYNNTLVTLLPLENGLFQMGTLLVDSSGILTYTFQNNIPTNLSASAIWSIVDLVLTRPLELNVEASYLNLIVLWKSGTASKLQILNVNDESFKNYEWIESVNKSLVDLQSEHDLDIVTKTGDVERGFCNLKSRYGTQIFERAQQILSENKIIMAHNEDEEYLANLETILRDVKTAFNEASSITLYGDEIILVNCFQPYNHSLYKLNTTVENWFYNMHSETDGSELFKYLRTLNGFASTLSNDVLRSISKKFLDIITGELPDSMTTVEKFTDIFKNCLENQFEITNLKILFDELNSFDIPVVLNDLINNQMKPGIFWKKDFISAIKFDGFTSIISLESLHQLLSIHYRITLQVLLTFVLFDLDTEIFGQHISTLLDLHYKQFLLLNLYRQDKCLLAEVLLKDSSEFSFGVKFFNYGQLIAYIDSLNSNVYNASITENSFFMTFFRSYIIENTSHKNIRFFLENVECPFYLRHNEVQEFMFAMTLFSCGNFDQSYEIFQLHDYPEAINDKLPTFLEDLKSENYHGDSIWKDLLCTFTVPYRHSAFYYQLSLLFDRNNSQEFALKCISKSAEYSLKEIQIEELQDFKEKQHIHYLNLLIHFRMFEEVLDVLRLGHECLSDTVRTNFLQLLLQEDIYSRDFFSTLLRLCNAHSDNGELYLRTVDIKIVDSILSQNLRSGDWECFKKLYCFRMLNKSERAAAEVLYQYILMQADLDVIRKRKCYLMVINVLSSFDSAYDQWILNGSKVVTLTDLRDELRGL

[3] = molecular target: T3, Nup133 (analyte of the BLI of Table 1) (Saccharomyces cerevisiae (strain ATCC …, UniProt P36161)); experiment: as above
T3 construct: Nup133, S. cerevisiae; source: E. coli, recombinant
T3 sequence (P36161 whole entry): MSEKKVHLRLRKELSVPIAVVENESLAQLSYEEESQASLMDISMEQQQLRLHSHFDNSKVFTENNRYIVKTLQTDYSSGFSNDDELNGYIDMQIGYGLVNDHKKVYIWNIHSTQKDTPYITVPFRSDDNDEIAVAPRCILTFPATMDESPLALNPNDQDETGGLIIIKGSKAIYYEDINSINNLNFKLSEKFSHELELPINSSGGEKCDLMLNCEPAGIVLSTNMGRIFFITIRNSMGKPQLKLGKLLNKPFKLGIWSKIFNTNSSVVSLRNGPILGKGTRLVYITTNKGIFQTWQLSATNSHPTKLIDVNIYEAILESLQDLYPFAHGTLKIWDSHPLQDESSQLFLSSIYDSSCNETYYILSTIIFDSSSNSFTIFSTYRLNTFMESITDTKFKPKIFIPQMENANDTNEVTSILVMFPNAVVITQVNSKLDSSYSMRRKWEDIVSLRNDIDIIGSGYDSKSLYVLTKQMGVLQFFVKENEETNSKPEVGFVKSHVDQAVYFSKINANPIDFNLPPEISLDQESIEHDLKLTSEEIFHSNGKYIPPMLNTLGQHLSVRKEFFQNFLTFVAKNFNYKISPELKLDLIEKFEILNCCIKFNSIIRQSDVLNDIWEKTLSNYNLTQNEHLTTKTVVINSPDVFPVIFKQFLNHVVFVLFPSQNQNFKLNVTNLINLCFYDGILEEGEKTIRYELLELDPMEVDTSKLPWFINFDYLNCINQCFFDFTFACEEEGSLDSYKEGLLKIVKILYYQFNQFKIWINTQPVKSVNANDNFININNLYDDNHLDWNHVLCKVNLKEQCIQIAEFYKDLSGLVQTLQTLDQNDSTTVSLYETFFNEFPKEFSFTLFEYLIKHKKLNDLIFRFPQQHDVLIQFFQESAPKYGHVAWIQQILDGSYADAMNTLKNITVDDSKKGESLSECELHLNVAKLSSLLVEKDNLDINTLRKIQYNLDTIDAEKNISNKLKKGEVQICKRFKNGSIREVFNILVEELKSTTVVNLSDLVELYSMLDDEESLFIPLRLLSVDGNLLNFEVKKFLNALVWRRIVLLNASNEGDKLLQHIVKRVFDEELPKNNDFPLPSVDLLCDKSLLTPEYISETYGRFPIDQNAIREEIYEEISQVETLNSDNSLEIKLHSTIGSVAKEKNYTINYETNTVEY

Nup84 = molecular target: T4, Nup84 (S. cerevisiae, UniProt P52891); experiment: as above
T4 construct: Nup84, S. cerevisiae; limits not given; source: E. coli LOBSTR-RIL(DE3), purified (Ni Sepharose, 3C protease, HiTrap SP FF flow-through, Superdex S200)
T4 sequence (P52891 whole entry): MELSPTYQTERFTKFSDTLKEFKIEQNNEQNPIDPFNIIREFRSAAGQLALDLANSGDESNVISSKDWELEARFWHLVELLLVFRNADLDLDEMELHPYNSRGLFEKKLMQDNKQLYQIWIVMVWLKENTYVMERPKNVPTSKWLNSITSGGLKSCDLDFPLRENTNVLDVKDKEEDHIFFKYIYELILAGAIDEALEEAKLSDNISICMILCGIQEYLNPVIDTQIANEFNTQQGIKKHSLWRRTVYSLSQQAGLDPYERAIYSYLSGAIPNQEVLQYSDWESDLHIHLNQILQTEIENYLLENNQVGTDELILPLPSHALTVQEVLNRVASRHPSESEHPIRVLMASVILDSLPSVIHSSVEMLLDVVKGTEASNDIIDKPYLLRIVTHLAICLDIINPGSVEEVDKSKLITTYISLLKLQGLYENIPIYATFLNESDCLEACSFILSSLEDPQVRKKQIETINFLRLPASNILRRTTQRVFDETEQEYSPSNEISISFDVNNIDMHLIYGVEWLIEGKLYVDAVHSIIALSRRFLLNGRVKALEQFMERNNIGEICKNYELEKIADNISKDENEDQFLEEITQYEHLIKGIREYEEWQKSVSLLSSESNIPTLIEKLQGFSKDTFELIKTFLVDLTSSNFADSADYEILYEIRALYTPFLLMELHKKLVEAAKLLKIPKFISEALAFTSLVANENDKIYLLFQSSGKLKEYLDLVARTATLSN

Nup85_(1–564) = molecular target: T5, Nup85_(1–564) (S. cerevisiae, UniProt P46673 1-564); experiment: crystal structure; nup-nanobody complexes crystallised at 18 °C; solved by molecular replacement
T5 construct: Nup85, S. cerevisiae, residues 1-564 (crown and trunk modules); The Nup85 chain of m31, written alone for the pairs that touch in the structure 6X08; also called Nup85_(trunk-crown); Nup85_(crown-trunk); source: E. coli LOBSTR-RIL(DE3), purified together with Seh1
T5 sequence (looked up): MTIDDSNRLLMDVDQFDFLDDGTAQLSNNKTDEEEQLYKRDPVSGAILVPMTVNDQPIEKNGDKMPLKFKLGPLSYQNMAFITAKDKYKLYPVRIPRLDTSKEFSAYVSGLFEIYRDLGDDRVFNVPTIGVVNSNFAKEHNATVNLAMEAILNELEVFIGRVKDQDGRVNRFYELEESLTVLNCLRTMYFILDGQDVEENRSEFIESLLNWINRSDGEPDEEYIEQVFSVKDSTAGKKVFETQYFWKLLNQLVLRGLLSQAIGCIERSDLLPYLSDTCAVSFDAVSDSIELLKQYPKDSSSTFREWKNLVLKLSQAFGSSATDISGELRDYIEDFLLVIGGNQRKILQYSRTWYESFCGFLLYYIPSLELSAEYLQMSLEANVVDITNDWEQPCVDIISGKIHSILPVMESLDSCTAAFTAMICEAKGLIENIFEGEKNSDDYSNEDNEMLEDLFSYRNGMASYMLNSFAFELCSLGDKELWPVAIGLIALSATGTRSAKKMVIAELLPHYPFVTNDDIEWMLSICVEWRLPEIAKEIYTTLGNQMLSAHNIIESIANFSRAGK

Nic96_(186–839) = molecular target: T6, Nic96_(186–839) (Saccharomyces cerevisiae S288c, UniProt P34077); experiment: BLI; biotinylated, C-terminally Avi-tagged nanobody immobilised on streptavidin tips, nup as analyte in twofold dilution series; 10 mM Tris/HCl pH 7.5, 150 mM NaCl, 1 mM DTT, 0.1 mM EDTA, 0.05% Tween-20, 0.1% BSA; global 1:1 kinetic fit
T6 construct: The only Nic96 construct in the methods; source: E. coli LOBSTR-RIL(DE3), purified (Ni Sepharose, 3C protease, Superdex S200)

[4] = molecular target: T7, fusion construct of Nup145C-Sec13 (Saccharomyces cerevisiae S288c, UniProt P49687;Q04491); experiment: SEC; nup and nanobody incubated 30 min on ice, then Superdex S75 or S200 10/300 in 150 mM NaCl, 10 mM Tris/HCl pH 7.5, 1 mM DTT, 0.1 mM EDTA
T7 construct: Nup145C, the C-terminal product of Nup145, S. cerevisiae; named among the 'full-length nups'; Sec13, S. cerevisiae; source: E. coli

[5] = molecular target: T8, Sec13 fused to the Nup145C insertion blade (Saccharomyces cerevisiae S288c, UniProt Q04491); experiment: as above
T8 construct: Sec13, S. cerevisiae; Nup145C insertion blade, S. cerevisiae, residues 320-411 as printed; also called Sec13-Nup145C_(320–411); Sec13-Nup145C_(blade); source: E. coli LOBSTR-RIL(DE3), purified (Ni Sepharose, 3C protease, Superdex S75)

[6] = molecular target: T9, Sec13 (analyte of the BLI of Table 1) (Saccharomyces cerevisiae S288c, UniProt Q04491); experiment: BLI; biotinylated, C-terminally Avi-tagged nanobody immobilised on streptavidin tips, nup as analyte in twofold dilution series; 10 mM Tris/HCl pH 7.5, 150 mM NaCl, 1 mM DTT, 0.1 mM EDTA, 0.05% Tween-20, 0.1% BSA; global 1:1 kinetic fit
T9 construct: Sec13, S. cerevisiae; The analyte may have been Sec13 fused to the Nup145C insertion blade; source: E. coli, recombinant
T9 sequence (Q04491 whole entry, the tested form may be a part): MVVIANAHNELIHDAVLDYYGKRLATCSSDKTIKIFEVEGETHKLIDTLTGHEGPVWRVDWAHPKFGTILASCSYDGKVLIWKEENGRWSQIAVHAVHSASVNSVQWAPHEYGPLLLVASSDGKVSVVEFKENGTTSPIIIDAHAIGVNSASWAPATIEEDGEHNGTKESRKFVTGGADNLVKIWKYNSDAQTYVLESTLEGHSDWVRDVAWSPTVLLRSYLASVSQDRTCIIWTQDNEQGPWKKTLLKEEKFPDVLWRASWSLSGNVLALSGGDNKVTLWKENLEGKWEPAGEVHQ

[7] = molecular target: T10, Nup120-Nup85-Seh1-Nup145C-Sec13 (Saccharomyces cerevisiae S288c, UniProt P35729;P46673;P53011;P49687;Q04491); experiment: SEC; nup and nanobody incubated 30 min on ice, then Superdex S75 or S200 10/300 in 150 mM NaCl, 10 mM Tris/HCl pH 7.5, 1 mM DTT, 0.1 mM EDTA
T10 construct: Nup120, S. cerevisiae; Nup85, S. cerevisiae; Seh1, S. cerevisiae; Nup145C, the C-terminal product of Nup145, S. cerevisiae, residues 34-712; Sec13, S. cerevisiae; Nup145C and Sec13 may stand on one chain as in the fusion construct; also called assembled Y complex hub; source: E. coli, purified; assembled from Nup85-Seh1 and Nup120-Nup145C_(34–712)-Sec13 on Superdex S200; copies: + + + +

Kd [1]: 80 pM
koff [1]: 8.1e-05 s⁻¹
kon [1]: 1e+06 M⁻¹ s⁻¹
B1: VHH-SAN2 with biotinylated C-terminal Avi-tag (VHH)
VHH: QVQLVETGGGLVQPGGSLRLSCAASGFTLDDYAIGWFRQAPGKEREGVSCISRSGGSTTYTDSVKGRFTISRDNAENTVYLQMNSLKPEDTAVYYCAAARTRGTCWLNRIGMDYWGKGTQVTVSS
notes: also in PDB 6X08; Separate Avi-tagged construct used for BLI; source: E. coli LOBSTR-RIL(DE3), biotin added to the culture, purified (Ni Sepharose, SEN-p protease, Superdex S75); not shown: 14xHis, N-terminal, cleaved; bdSUMO, N-terminal, cleaved; Avi-tag, C-terminal, kept

Kd [2]: 790 pM
koff [2]: 0.00078 s⁻¹
kon [2]: 980000 M⁻¹ s⁻¹
B2: VHH-SAN11 with biotinylated C-terminal Avi-tag (VHH)
VHH: QVQLVETGGGLVRAGGSLRLSCVDSGRTFRVYTMGWFRQAPGKEREFVAAIRWSGDRTYYGDPVQGRFTISRDKGKNTVYLQMNSLKPEDTAVYYCAAPAGGGVVYDDHKAYAYWGQGTQVTVS
notes: also in PDB 6X06; Separate Avi-tagged construct used for BLI; source: E. coli LOBSTR-RIL(DE3), biotin added to the culture, purified (Ni Sepharose, SEN-p protease, Superdex S75); not shown: 14xHis, N-terminal, cleaved; bdSUMO, N-terminal, cleaved; Avi-tag, C-terminal, kept

Kd [3]: 230000 pM
koff [3]: 0.22 s⁻¹
kon [3]: 950000 M⁻¹ s⁻¹
B3: VHH-SAN4 with biotinylated C-terminal Avi-tag (VHH)
VHH: QLQLVESGGGSVQAGGSLTLSCTASESISKRIHGIGWFRQRRGEQREEIAYITTGGRPNLGDSVKDRFTISRDKSNGTVYLQMNSLKPEDTAVYYCHGRGRWWGTEGRLDYWGQGTQVTVSS
notes: Separate Avi-tagged construct used for BLI; source: E. coli LOBSTR-RIL(DE3), biotin added to the culture, purified (Ni Sepharose, SEN-p protease, Superdex S75); not shown: 14xHis, N-terminal, cleaved; bdSUMO, N-terminal, cleaved; Avi-tag, C-terminal, kept

Kd [1]: 580 pM
koff [1]: 0.0014 s⁻¹
kon [1]: 2.3e+06 M⁻¹ s⁻¹
B4: VHH-SAN1 with biotinylated C-terminal Avi-tag (VHH)
VHH: QVQLVETGGGLVPPGGSLKLSCAVSGDILRVQTMGWYRQAPGKQRELVAAFTGGGRTNYADSMKGRFTISRDNAKNTVFLQMNSLKPEDTAVYYCRADIAAVRPWPLQEYWGQGTQVTVSS
notes: as for B3

Kd [3]: 10000 pM
koff [3]: 0.0028 s⁻¹
kon [3]: 280000 M⁻¹ s⁻¹
B5: VHH-SAN5 with biotinylated C-terminal Avi-tag (VHH)
VHH: QVQLVESGGGLVQAGGSLRLSCAASGSIGSLDAMAWYRRAPGKQRERVASISRYGTYYVDSVKGRFTISRDNAKNTVYLQMNSLKPEDTGVYYCKGVMEVGGVIDEYWGQGTQVTVSS
notes: as for B3

Kd (Nup84): 63 pM
koff (Nup84): 2.2e-05 s⁻¹
kon (Nup84): 350000 M⁻¹ s⁻¹
B6: VHH-SAN8 with biotinylated C-terminal Avi-tag (VHH)
VHH: QLQLVETGGGLVQAGGSLRLSCVASGRTFTSYAMGWFRQAPGKEREFVAAISRLASGTDYADSVKGRFTISRNNDKNTVYLQMNNLIPEDTAVYYCAALQALRFSLPIAMATMKNGRADSWGQGTQVTVSS
notes: as for B3

binding result (Nup85_(1–564)): binds
B7: Seh1 (natural protein, S. cerevisiae)
chain: MQPFDSGHDDLVHDVVYDFYGRHVATCSSDQHIKVFKLDKDTSNWELSDSWRAHDSSIVAIDWASPEYGRIIASASYDKTVKLWEEDPDQEECSGRRWNKLCTLNDSKGSLYSVKFAPAHLGLKLACLGNDGILRLYDALEPSDLRSWTLTSEMKVLSIPPANHLQSDFCLSWCPSRFSPEKLAVSALEQAIIYQRGKDGKLHVAAKLPGHKSLIRSISWAPSIGRWYQLIATGCKDGRIRIFKITEKLSPLASEESLTNSNMFDNSADVDMDAQGRSDSNTEEKAELQSNLQVELLSEHDDHNGEVWSVSWNLTGTILSSAGDDGKVRLWKATYSNEFKCMSVITAQQ
notes: Seh1, S. cerevisiae; Used alone in SEC with VHH-SAN1; also written alone for its contact with Nup85(1-564) in the structure 6X08; also called Seh1 alone; source: E. coli

Kd [2]: 380 pM
koff [2]: 0.00017 s⁻¹
kon [2]: 450000 M⁻¹ s⁻¹
B8: VHH-SAN10 with biotinylated C-terminal Avi-tag (VHH)
VHH: QVQLVETGGGLVQAGGSLRLSCVVSGRTFSSYAMGWFRQAPGKEREFVSGINWSGGSAYYGDSVKGRFTISRDNAKNTVYLQMNSLKPEDTAVYYCVADRAWRGTTWRADSSYDYWGQGTQVTVSS
notes: deposited with PDB 6X06, but no density for VHH-SAN10 in the map; Separate Avi-tagged construct used for BLI; source: E. coli LOBSTR-RIL(DE3), biotin added to the culture, purified (Ni Sepharose, SEN-p protease, Superdex S75); not shown: 14xHis, N-terminal, cleaved; bdSUMO, N-terminal, cleaved; Avi-tag, C-terminal, kept

Kd (Nic96_(186–839)): 1300 pM
koff (Nic96_(186–839)): 0.0024 s⁻¹
kon (Nic96_(186–839)): 1.8e+06 M⁻¹ s⁻¹
B9: VHH-SAN12 with biotinylated C-terminal Avi-tag (VHH)
VHH: QVQLVETGGGLVQAGGSLRLSCATSGFNFRLRTMGWYRQAPGKERELVASITSGGSTDYADSVKGRFTISRDNAKNTISLEMNSLKPDDTAVYYCNIWAPTTAAITNWGQGTQVTVSS
notes: also in PDB 6X07; Separate Avi-tagged construct used for BLI; source: E. coli LOBSTR-RIL(DE3), biotin added to the culture, purified (Ni Sepharose, SEN-p protease, Superdex S75); not shown: 14xHis, N-terminal, cleaved; bdSUMO, N-terminal, cleaved; Avi-tag, C-terminal, kept

Kd (Nup84): 170 pM
koff (Nup84): 7.7e-05 s⁻¹
kon (Nup84): 440000 M⁻¹ s⁻¹
B10: VHH-SAN9 with biotinylated C-terminal Avi-tag (VHH)
VHH: QVQLVESGGGSVQAGGSLRLSCAVSGGTLSTLAMGWFRQAPGQEREFVARIGWTNGDTGYADSVKGRFTISRDNVKNTVYLQMNNLKPEDTALYYCATRRPYGSTLYPPNTESAHDNWGQGTQVTVSS
notes: as for B3

Kd [1]: 14 pM
koff [1]: 8.1e-06 s⁻¹
kon [1]: 580000 M⁻¹ s⁻¹
B11: VHH-SAN3 with biotinylated C-terminal Avi-tag (VHH)
VHH: QVQLVESGGGLVQAGGSLRLSCFASGGTFSRYDMGWFRQAPGKEREFVARITRGGRVADYAAFVEGRFTISRDNAKNTVYLQMNSLKPEDTGIYFCAGKDAGVFDFYLWGQGTQVTVSS
notes: as for B3

binding result [4]: binds
binding result [5]: no binding
B12: VHH-SAN6 (VHH)
VHH: QLQLVETGGGSVQAGGSLSLSCIVSGRTSTYYAMGWFRQAPGKEREFVAAINWSGSSTVYEESVKGRFTISRDNVQNTVYLQMNSLKPEDTADYYCAAAATIFIPRPDEYPYWGQGTQVTVSS
notes: source: E. coli LOBSTR-RIL(DE3), purified (Ni Sepharose, SEN-p protease, Superdex S75); not shown: 14xHis, N-terminal, cleaved; bdSUMO, N-terminal, cleaved

Kd [6]: 510 pM
koff [6]: 0.00065 s⁻¹
kon [6]: 1.3e+06 M⁻¹ s⁻¹
B13: VHH-SAN7 with biotinylated C-terminal Avi-tag (VHH)
VHH: QVQLVETGGGLVQPGGSLRLSCVASGSIFGINAMGWYRQAPGNQRELVASIRSDFGTTKYADSVKGRFTISRGNARTTVYLQMNSLKPEDTAVYYCRIWSADGNYWGQGTQVTVSS
notes: as for B3

binding result [7]: binds
binding result [4]: binds
B14: VHH-SAN7 (VHH)
VHH: QVQLVETGGGLVQPGGSLRLSCVASGSIFGINAMGWYRQAPGNQRELVASIRSDFGTTKYADSVKGRFTISRGNARTTVYLQMNSLKPEDTAVYYCRIWSADGNYWGQGTQVTVSS
notes: as for B12
